Publication PMC8442553 (Science (New York, N.Y.), 2019)

Columns and labels:
Test in all cases: cryo-EM structure
Rsc3 = molecular target: T1, Rsc3 (yeast, UniProt Q06639 1-885)
T1 sequence: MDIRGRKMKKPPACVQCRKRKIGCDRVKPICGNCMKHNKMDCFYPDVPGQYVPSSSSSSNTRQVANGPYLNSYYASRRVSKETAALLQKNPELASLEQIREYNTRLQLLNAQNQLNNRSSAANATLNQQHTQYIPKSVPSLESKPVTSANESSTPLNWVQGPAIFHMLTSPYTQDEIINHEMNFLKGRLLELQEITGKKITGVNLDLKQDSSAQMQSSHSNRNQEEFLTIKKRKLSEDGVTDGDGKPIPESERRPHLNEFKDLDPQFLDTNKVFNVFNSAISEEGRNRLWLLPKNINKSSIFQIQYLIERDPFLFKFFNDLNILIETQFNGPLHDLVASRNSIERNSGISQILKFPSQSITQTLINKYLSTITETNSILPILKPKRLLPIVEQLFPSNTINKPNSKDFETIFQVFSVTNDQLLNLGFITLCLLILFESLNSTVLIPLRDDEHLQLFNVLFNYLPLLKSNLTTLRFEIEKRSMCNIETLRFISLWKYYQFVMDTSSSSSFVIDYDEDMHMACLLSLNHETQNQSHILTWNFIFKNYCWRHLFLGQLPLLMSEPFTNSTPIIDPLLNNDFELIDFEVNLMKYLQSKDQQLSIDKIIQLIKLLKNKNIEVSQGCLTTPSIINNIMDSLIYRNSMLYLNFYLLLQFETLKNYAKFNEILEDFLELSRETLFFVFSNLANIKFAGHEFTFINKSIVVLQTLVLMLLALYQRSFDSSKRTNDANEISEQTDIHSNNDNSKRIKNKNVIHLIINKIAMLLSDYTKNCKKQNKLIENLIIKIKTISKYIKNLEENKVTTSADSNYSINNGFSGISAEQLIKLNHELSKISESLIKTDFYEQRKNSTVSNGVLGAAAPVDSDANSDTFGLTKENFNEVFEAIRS

Rsc30 = molecular target: T2, Rsc30 (yeast, UniProt P38781 1-883)
T2 sequence: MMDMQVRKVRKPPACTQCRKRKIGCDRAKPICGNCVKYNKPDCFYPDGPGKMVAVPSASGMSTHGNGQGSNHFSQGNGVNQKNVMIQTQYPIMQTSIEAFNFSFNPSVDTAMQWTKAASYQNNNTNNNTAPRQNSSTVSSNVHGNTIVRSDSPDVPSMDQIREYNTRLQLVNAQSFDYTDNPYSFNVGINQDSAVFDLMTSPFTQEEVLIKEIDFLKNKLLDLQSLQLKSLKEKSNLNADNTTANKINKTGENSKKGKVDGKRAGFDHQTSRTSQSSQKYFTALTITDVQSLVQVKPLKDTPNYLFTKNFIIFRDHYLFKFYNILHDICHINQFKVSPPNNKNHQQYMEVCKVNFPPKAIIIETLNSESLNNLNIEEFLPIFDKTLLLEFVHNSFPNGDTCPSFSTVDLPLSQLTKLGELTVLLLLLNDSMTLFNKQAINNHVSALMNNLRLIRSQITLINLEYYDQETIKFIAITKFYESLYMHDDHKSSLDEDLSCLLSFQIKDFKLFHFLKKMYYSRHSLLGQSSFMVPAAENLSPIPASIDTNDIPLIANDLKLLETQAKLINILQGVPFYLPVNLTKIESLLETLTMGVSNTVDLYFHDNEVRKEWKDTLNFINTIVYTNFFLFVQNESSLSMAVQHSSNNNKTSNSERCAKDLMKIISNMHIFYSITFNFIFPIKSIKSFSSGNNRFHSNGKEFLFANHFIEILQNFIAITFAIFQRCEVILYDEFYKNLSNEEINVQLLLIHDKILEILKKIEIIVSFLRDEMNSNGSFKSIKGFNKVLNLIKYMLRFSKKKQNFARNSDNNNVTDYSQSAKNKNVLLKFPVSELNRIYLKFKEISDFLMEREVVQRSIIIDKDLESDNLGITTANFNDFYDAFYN

Sth1 = molecular target: T3, Sth1 (yeast, UniProt P32597 1-1359)
T3 sequence: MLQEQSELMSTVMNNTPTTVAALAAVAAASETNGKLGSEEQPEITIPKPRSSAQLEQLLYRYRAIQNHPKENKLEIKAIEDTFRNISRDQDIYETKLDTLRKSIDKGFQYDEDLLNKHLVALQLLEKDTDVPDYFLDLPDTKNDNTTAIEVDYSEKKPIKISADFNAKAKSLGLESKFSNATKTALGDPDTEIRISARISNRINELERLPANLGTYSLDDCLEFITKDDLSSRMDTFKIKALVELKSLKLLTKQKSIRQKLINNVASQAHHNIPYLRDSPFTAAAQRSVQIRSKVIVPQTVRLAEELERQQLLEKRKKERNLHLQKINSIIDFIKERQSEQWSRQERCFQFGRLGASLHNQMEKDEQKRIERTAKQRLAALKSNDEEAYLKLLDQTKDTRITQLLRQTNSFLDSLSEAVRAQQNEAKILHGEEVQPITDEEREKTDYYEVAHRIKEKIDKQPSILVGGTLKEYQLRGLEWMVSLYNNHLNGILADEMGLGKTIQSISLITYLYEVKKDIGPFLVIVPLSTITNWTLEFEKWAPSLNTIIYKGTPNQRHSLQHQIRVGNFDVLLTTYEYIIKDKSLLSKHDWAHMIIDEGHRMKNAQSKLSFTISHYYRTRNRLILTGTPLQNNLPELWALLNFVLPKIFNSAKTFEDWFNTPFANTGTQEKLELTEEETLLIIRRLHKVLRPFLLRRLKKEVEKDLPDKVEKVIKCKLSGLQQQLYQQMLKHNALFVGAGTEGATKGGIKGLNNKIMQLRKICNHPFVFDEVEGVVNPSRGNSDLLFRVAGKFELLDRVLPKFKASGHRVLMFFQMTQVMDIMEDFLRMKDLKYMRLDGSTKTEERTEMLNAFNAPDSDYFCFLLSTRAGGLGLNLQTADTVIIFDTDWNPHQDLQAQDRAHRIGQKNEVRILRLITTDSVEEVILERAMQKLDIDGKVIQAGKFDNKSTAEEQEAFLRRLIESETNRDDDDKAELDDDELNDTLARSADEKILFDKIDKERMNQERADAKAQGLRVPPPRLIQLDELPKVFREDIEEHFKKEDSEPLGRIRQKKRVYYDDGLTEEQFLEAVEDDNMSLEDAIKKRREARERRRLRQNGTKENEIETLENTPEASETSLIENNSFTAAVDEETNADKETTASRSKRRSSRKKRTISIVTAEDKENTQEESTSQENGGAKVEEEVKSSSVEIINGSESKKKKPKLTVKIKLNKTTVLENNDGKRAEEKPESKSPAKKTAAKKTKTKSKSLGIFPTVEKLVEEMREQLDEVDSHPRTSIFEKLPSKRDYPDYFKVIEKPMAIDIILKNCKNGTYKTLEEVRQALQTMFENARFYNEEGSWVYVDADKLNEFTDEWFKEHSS

Measured: binding result

B1: Rsc9 (natural protein, yeast)
chain: MNSLASNTPLNGTPVSEAPATSSEPVNMFETMVANPIKVSRLQSNGVLTGPAANTKSIHYSLANFNVFQSLPKETARGVDDLTRMEMALLSGIPEEIKWSLKKYLTYSNKAPYMISLRTLPDLLPLFKTFILPLERIVEGLNKSSICDSKAMDSLQMGLNALLILRNLAQDTDSVQILVKDREIKSFILFILKKFQCVATGDNKWQLYEGNATFFNELTHYTLDLMEAISSYIAPAMKDDHYFQTLVSILNYTKDRYMVISILRSLSRLLVRSKANEESAADNLDHKTLSLIVSFLLLECDSELIIASLDFLYQYILPGSQRITELFKSKECSLILEATLPNLLSYNIATPDYHLLQKHKIRLIKRLKPPAPKEPPNLSEDLFQQLFKLNEPLRSTAWLRCCFEPVQEAEFTQISLWRSYESKFGQPVRESGRKLLPAVEFIKNVSNAFNNAAAIVITDPVTGKKRFVIKGIQPRFKALGIADGERESQVPISALKSKFLNDSKEITPARQNSIPEVKFPQELSDVSKVACTFLCLLSNDTDDGAGSAFCQRIRPLVLHKLADIPPLTLALSEYMENTSGL
binds: all assays above
